“Also recorded” adds a separate entry of the source.
Legend:
[1] = tested on: epithelial and T cells (species C HAdVs); conditions: ref [15], cited from earlier work
From the text: This is surprising, as hLF usually exerts antimicrobial functions ([22][–][24]), as well as preventing virus attachment to target cells and/or inhibiting virus replication ([25][–][27]). hLF is produced largely by neutrophils, but also by primary epithelial cells, and it is naturally present in a vast majority of body fluids in concentrations of up to several mg/ml, where it protects epithelia from pathogens ([28][–][31]). […] In this study, we investigated the molecular mechanisms behind hLF-dependent infection. As a first step, we investigated the structural features whereby hLF mediates HAdV-C5 infection of human respiratory A549 cells. In total, we used three different types of lactoferrin, namely, hLF purified from human tear fluid (present in several mg/ml), a recombinant form of hLF produced in Aspergillus with a human amino acid backbone but with a high-mannose glycosylation pattern ... || Utilization of hLF/hLfcin by species C HAdVs could also account for the frequent and persistent infections of species C HAdVs in tonsil T lymphocytes in young children ([56]). […] Taken together, our results highlight the ingenuity of HAdVs and explain how they may ensure efficient infection in a very hos ...

HAdV-A31 hexon = test: Surface plasmon resonance, HAdV-A31 hexon immobilized; format: binding; conditions: analyte hLF, HBS-EP+ pH 7.4, 25°C, average from three independent measurements
Experimental: (§1) Ten flasks of 70% confluent A549 cells were infected with HAdV-C5, HAdV-A31, or HAdV-B35. After initial inoculation, unbound virus was washed away, and approximately 30 ml of fresh medium (DMEM plus 20 mM HEPES [N-2-hydroxyethylpiperazine-NN-2-ethanesulfonic acid] plus 5% FBS) was added. At 48 h after infection, the cells were harvested by scraping into a small volume of DMEM, centrifuged, and resuspended in 6 ml of DMEM. The collected cells were lysed and the sample cleared by centrifugation. Virus was separated from soluble viral components by a CsCl gradient, as described previously ([59]). After ultracentrifugation, the top phase containing soluble viral components was recovered, and HAdV hexons were purified using monoclonal hexon antibodies (MAB8052) covalently attached to magnetic protein A/G beads (Pierce) using dimethyl pimelimidate (DMP) according to the manufacturer’s instructions. Bound hexons were washed three times using PBS to remove protein bound unspecifically, followed by elution in 50 μl of 200 mM glycine buffer at pH 2.5.
CM5 sensor chips, an amine-coupling kit, and HBS-EP+ buffer (10 mM HEPES, 150 mM NaCl, 3 mM EDTA, and 0.005% [vol/vol] surfactant P20 [pH 7.4]) were all purchased from GE Healthcare. All surface plasmon resonance (SPR) experiments were performed at 25°C in HBS-EP+ running buffer with adenovirus hexons immobilized on the sensor surface. In addition, all experiments were performed with the same batch of LF/Lfcin. Data were collected with a Biacore T200 instrument at a rate of 1 Hz. HAdV hexons were coupled to the CM5 sensor chip by amine coupling reactions according to the manufacturer’s instructions, aiming for an immobilization density of 900 to 1,100 resonance units (RU). The surface of the upstream flow cell was used as a reference and was subjected to the same coupling reaction in the absence of protein. […]

[2] = tested on: human respiratory epithelial A549 cells (HAdV-C5_GFP); test: HAdV-C5_GFP transduction of A549 cells; format: cell-based
From the text: For all transduction experiments, GFP-expressing vectors were used. The HAdV_GFP vector was purchased from Vector Development Laboratory. All mutated HAdV-C5 vectors were generated in the laboratory of A. Plückthun at the University of Zürich using the AdEasy system (Agilent) to contain an internal ribosome entry site (IRES)-luciferase (Luc)-GFP cassette for detection of transduction. To investigate the role of integrins in transduction, HAdV-C5-IRES-GFP with an intact RGD loop in the penton base protein (-DMNDHAIRGDTFATRAE-) and HAdV-C5-ΔRGD-IRES-GFP (-DMNDTSRAEEKRAE-), known not to bind integrins ([40]), were generated. To determine the binding site for hLF/hLfcin on the hexon protein, hexon-mutated vectors were produced with HVR-1 of HAdV-C5 ([43]) replaced with the corresponding sequence of HAdV-A31, as well as a HAdV-C5 vector mutated in HVR-7 ([44]).
For experiments in A549 cells, 15,000 cells were seeded into a black 96-well plate with a transparent bottom. For experiments with CHO-K1 cells, 20,000 cells were seeded. After 24 h, HAdV-C5 vectors was complexed with 2 μM Lfcin or with ∼12 μM (1 mg/ml) of LF and, after 60 min, added to the cells on ice. The blocking of CAR using soluble HAdV-C5 fiber knob was performed using 10 μg/ml of recombinant knob. After another 60 min, unbound complex was washed away using Dulbecco’s modified Eagle’s medium (DMEM), followed by final addition of fresh medium. After 44 h, the cells were fixed using 4% paraformaldehyde (PFA) for 10 min, and GFP expression was imaged using a Trophos system (Luminy Biotech Entreprises). For the hexon chimeric viruses, transduction was instead quantified by measuring the luciferase activity at 44 h postinfection using a Pierce luciferase glow assay kit.

HAdV-B35 hexon = test: Surface plasmon resonance, HAdV-B35 hexon immobilized; format: binding
Experimental: as §1
(§2) CM5 sensor chips, an amine-coupling kit, and HBS-EP+ buffer (10 mM HEPES, 150 mM NaCl, 3 mM EDTA, and 0.005% [vol/vol] surfactant P20 [pH 7.4]) were all purchased from GE Healthcare. All surface plasmon resonance (SPR) experiments were performed at 25°C in HBS-EP+ running buffer with adenovirus hexons immobilized on the sensor surface. In addition, all experiments were performed with the same batch of LF/Lfcin. Data were collected with a Biacore T200 instrument at a rate of 1 Hz. HAdV hexons were coupled to the CM5 sensor chip by amine coupling reactions according to the manufacturer’s instructions, aiming for an immobilization density of 900 to 1,100 resonance units (RU). The surface of the upstream flow cell was used as a reference and was subjected to the same coupling reaction in the absence of protein. The analytes were serially diluted in running buffer to prepare a 2-fold concentration series ranging from 8 nM to 2 μM and then injected in series over reference and experimental biosensor surfaces for 120 sec at a flow rate of 30 μl/min. Blank samples containing only running buffer were also injected under the same conditions to allow for double referencing. After each cycle, the biosensor surface was regenerated with a 60-sec pulse of 10 mM Tris-glycine (pH 1.5) at a flow rate of 30 μl/min.

HAdV-C5 hexon = molecular target: T1, HAdV-C5 hexon (Human adenovirus C serotype 5, UniProt P04133); test: Surface plasmon resonance, HAdV-C5 hexon immobilized; format: binding
T1 construct: the top phase containing soluble viral components was recovered, and HAdV hexons were purified using monoclonal hexon antibodies; made in house; host or cells: A549 cells infected with wild-type HAdV-C5 (strain Ad75)
T1 sequence (P04133 2-952 limits assumed): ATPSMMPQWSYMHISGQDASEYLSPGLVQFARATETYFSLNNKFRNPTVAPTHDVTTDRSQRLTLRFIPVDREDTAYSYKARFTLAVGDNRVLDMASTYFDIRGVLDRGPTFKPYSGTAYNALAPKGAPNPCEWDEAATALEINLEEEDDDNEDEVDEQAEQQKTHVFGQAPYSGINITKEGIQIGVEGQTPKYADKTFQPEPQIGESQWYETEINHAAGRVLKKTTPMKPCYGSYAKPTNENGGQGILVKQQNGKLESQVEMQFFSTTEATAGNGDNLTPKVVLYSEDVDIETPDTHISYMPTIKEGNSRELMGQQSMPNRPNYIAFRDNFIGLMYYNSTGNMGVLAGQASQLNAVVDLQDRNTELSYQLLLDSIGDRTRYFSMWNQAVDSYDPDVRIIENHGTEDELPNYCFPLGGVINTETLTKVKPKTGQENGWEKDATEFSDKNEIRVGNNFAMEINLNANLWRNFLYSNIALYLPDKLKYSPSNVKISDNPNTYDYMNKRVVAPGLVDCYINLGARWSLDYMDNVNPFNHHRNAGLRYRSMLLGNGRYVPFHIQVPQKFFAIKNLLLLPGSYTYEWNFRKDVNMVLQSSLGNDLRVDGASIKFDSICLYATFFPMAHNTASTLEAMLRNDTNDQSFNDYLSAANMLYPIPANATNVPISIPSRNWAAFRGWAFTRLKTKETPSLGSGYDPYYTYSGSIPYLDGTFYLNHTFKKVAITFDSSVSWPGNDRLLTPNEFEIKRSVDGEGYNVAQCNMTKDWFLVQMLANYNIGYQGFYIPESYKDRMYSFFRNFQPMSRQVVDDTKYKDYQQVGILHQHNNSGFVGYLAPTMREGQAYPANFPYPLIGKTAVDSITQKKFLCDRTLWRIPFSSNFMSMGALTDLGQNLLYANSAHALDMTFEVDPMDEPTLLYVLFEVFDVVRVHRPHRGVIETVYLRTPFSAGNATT
Experimental: as §1, §2

[3] = association rate constant, analyte hLF, SPR, HBS-EP+ pH 7.4, 25°C, average from three independent measurements
[4] = dissociation rate constant, analyte hLF, SPR, HBS-EP+ pH 7.4, 25°C, average from three independent measurements

Molecule	effect on HAdV-C5 infection of CAR-negative T cells ([1]; CAR-negative T cells)	effect on species C HAdV infection [1]	Kd (HAdV-A31 hexon; SPR Biacore T200, HAdV-A31 hexon on CM5 chip, 2-fold series 8 nM to 2 μM) [nM]	ka (HAdV-A31 hexon; association rate constant, SPR) [M⁻¹ s⁻¹]	kd (HAdV-A31 hexon; dissociation rate constant, SPR) [s⁻¹]	increase of HAdV-C5_GFP transduction of A549 cells by LF ([2]; LF 1 mg/ml preincubated with HAdV-C5_GFP, GFP imaging after 44 h, mean from 3 to 5 independent experiments (Fig. 1A)) [fold]	prevention of transduction at high concentration ([2]; high, nonphysiological concentrations, data not shown, cell line not stated, also ref [15])	Kd (HAdV-B35 hexon; SPR Biacore T200, HAdV-B35 hexon on CM5 chip, analyte hLF, 2-fold series 8 nM to 2 μM, HBS-EP+ pH 7.4, 25°C, average from three independent measurements) [nM]	affinity ratio, HAdV-B35 hexon stronger than HAdV-A31 hexon (HAdV-B35 hexon; SPR, 25°C, pH 7.4, HAdV-B35 versus HAdV-A31 hexon) [fold]	ka (HAdV-B35 hexon; [3]) [M⁻¹ s⁻¹]	kd (HAdV-B35 hexon; [4]) [s⁻¹]	Kd (HAdV-C5 hexon; SPR Biacore T200, HAdV-C5 hexon amine-coupled on CM5 chip (900 to 1,100 RU), analyte hLF, 2-fold series 8 nM to 2 μM, HBS-EP+ pH 7.4, 25°C, average from three independent measurements) [nM]	affinity ratio, HAdV-C5 hexon stronger than HAdV-B35 hexon (HAdV-C5 hexon; SPR, 25°C, pH 7.4, HAdV-C5 versus HAdV-B35 hexon)	ka (HAdV-C5 hexon; [3]) [M⁻¹ s⁻¹]	kd (HAdV-C5 hexon; [4]) [s⁻¹]	effect of LF on HAdV-C5_GFP transduction of A549 cells (in words) ([2]; LF 1 mg/ml preincubated with HAdV-C5_GFP, GFP imaging after 44 h (Fig. 1A))
human lactoferrin (protein, UniProt P02788 20-710, looked up, Human LF purified from human tear fluid by size exclusion chromatography) Lactotransferrin: GRRRSVQWCAVSQPEATKCFQWQRNMRKVRGPPVSCIKRDSPIQCIQAIAENRADAVTLDGGFIYEAGLAPYKLRPVAAEVYGTERQPRTHYYAVAVVKKGGSFQLNELQGLKSCHTGLRRTAGWNVPIGTLRPFLNWTGPPEPIEAAVARFFSASCVPGADKGQFPNLCRLCAGTGENKCAFSSQEPYFSYSGAFKCLRDGAGDVAFIRESTVFEDLSDEAERDEYELLCPDNTRKPVDKFKDCHLARVPSHAVVARSVNGKEDAIWNLLRQAQEKFGKDKSPKFQLFGSPSGQKDLLFKDSAIGFSRVPPRIDSGLYLGSGYFTAIQNLRKSEEEVAARRARVVWCAVGEQELRKCNQWSGLSEGSVTCSSASTTEDCIALVLKGEADAMSLDGGYVYTAGKCGLVPVLAENYKSQQSSDPDPNCVDRPVEGYLAVAVVRRSDTSLTWNSVKGKKSCHTAVDRTAGWNIPMGLLFNQTGSCKFDEYFSQSCAPGSDPRSNLCALCIGDEQGENKCVPNSNERYYGYTGAFRCLAENAGDVAFVKDVTVLQNTDGNNNEAWAKDLKLADFALLCLDGKRKPVTEARSCHLAMAPNHAVVSRMDKVERLKQVLLHQQAKFGRNGSDCPDKFCLFQSETKNLLFNDNTECLARLHGKTTYEKYLGPQYVAGITNLKKCSTSPLLEACEFLRK	facilitates HAdV-C5 infection	efficiently increases species C HAdV infection; also recorded: all species C HAdVs infect epithelial and T cells more efficiently	827 ± 55	12000 ± 1100	0.01011 ± 0.00024	4	able to prevent transduction	151 ± 14	5	25000 ± 2500	0.00354 ± 0.00014	29 ± 3.6	about 5 fold	53000 ± 2600	0.00154 ± 0.00024	–
rhLF: recombinant hLF produced in Aspergillus awamori, human amino acid backbone, high-mannose glycosylation pattern (protein, UniProt P02788 20-710, looked up, recombinant, expressed in Aspergillus awamori) Lactotransferrin: GRRRSVQWCAVSQPEATKCFQWQRNMRKVRGPPVSCIKRDSPIQCIQAIAENRADAVTLDGGFIYEAGLAPYKLRPVAAEVYGTERQPRTHYYAVAVVKKGGSFQLNELQGLKSCHTGLRRTAGWNVPIGTLRPFLNWTGPPEPIEAAVARFFSASCVPGADKGQFPNLCRLCAGTGENKCAFSSQEPYFSYSGAFKCLRDGAGDVAFIRESTVFEDLSDEAERDEYELLCPDNTRKPVDKFKDCHLARVPSHAVVARSVNGKEDAIWNLLRQAQEKFGKDKSPKFQLFGSPSGQKDLLFKDSAIGFSRVPPRIDSGLYLGSGYFTAIQNLRKSEEEVAARRARVVWCAVGEQELRKCNQWSGLSEGSVTCSSASTTEDCIALVLKGEADAMSLDGGYVYTAGKCGLVPVLAENYKSQQSSDPDPNCVDRPVEGYLAVAVVRRSDTSLTWNSVKGKKSCHTAVDRTAGWNIPMGLLFNQTGSCKFDEYFSQSCAPGSDPRSNLCALCIGDEQGENKCVPNSNERYYGYTGAFRCLAENAGDVAFVKDVTVLQNTDGNNNEAWAKDLKLADFALLCLDGKRKPVTEARSCHLAMAPNHAVVSRMDKVERLKQVLLHQQAKFGRNGSDCPDKFCLFQSETKNLLFNDNTECLARLHGKTTYEKYLGPQYVAGITNLKKCSTSPLLEACEFLRK	–	–	–	–	–	–	–	–	–	–	–	–	–	–	–	Neither bLF nor rhLF affected HAdV-C5_GFP transduction
